Results: patent US20170066817A1

Experiments:
[1] = target: human cellular prion protein (human); assay: cell-based or functional assay
[2] = target: GST-PrPc (β1α1) protein (human); assay: Biacore (SPR), ratio of affinities
[3] = target: GST-PrPc (β1α1) protein (human); assay: Biacore (SPR), soluble GST-PrPc (β1α1) at several concentrations

B1: anti-PrPc mAb-5 (monoclonal antibody Ab-5) (antibody, V domains shown)
VH: EVQLQQSGPELVKPGASVKMSCKASGYTFTDYYMKWVKQSHGKSLEWIGDINPNNGDTFYNQKFKGKATLTVDKSSNTAYMQLNSLTSEDSAVYYCAKPGRTYWGQGTLVTVSAAKTTAPSVYPLAPVCGGSRP
VL: DIVLTQSPASLAVSLGQRATISYRASKSVSTSGYSYMHWNQQKPGQPPRLLIYLVSNLESGVPARFSGSGSGTDFTLNIHPVEEEDAATYYCQHIRELTRSEGGPSWK
B1 gave a Migrated cell number, HCT116 cells (transwell, antibody 10 µg/mL, 24 h) [1] of 192 cells, a Migrated cell number, MDA-MB-231 cells (transwell, antibody 10 µg/mL, 24 h) [1] of 695 cells and a Migrated cell number, SW480 cells (transwell, antibody 10 µg/mL, 24 h) [1] of 111 cells. The fold affinity against 12F10 [2] was 5.38 times, the fold affinity against Ab-3 [2] was 1.87 times and the Kd [3] was 3.05 nM.
